Measured values reported in the supplement of paper PMC9732359.
± gives the uncertainty stated by the source.

Test: protein stability index of a GFP-peptide fusion (yeast GPS) (PSI 1-4); higher = more stable; sorted into four equal gates, so the index is relative within each strain
How it was run: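 Sequencing reads from sorted gates were used to score each peptide. The library consisted of tiled 17-residue yeast protein peptides fused downstream of GFP on a Cherry-expressing plasmid, pooled and carried in yeast. Mid-log cultures in leucine-free medium were split into four equal gates by GFP/Cherry ratio, and each gate's plasmids were PCR-amplified and Illumina-sequenced. The protein stability index adds up, over all gates, the read frequency multiplied by the gate number.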

Sequence | protein stability index (doa10∆) | protein stability index (pdr5∆) | protein stability index (san1∆) | protein stability index (ubr1∆)
RKKARTFDSSWNWAKQS [FAS2] | 1.79 ± 0.14 | 1.97 ± 0.12 | 2.32 ± 0.12 | 2.95 ± 0.074
VMDTIQEQITLYDHWDK [SSN8] | 3.14 ± 0.12 | 2.96 ± 0.09 | 2.63 ± 0.095 | 2.82 ± 0.068
GMRVGVDRSKYNIELPL [RPT1] | – | – | 3.52 ± 0.16 | –
FISYHDKYLCMLKTCVF [NUT1] | 2.67 ± 0.057 | 2.95 ± 0.064 | 3.03 ± 0.061 | 2.13 ± 0.042
KASVLEISPQDSIASVL [GAL11] | 3.27 ± 0.09 | 3.39 ± 0.066 | 3.13 ± 0.083 | 3.13 ± 0.086
SYDCTGVNELAPIPKGR [POP1] | 2.84 ± 0.061 | 2.79 ± 0.057 | 3.01 ± 0.055 | 3 ± 0.042
LGKRINSAVNNAISNTQ [SRP54] | 2.46 ± 0.099 | 3.19 ± 0.12 | 2.91 ± 0.096 | 3.12 ± 0.097
SAAAAGNRNSSSVFLPS [BRR2] | 3.13 ± 0.062 | 3.17 ± 0.063 | 3.13 ± 0.046 | 3.15 ± 0.059
ENEEFITFLQTLYIGNT [ECM29] | 2.06 ± 0.055 | 2.42 ± 0.036 | 2.38 ± 0.11 | 2.22 ± 0.066
LSGSISERIVDCIIRLP [FAS1] | 1.35 ± 0.092 | 1.16 ± 0.09 | 1.23 ± 0.27 | 1.85 ± 0.046
LKREERQGLIHQGSGGS [SMC3] | – | 3.52 ± 0.1 | – | –
NVNLDDYPDDSGWTPFH [NAS6] | 3 ± 0.091 | 2.91 ± 0.069 | 2.92 ± 0.061 | 2.96 ± 0.066
TTIFVKSTTPYVSALKR [POP7] | 1.82 ± 0.07 | 2.27 ± 0.077 | 2.27 ± 0.076 | 1.97 ± 0.056
MVNESDGVTHALYPQEA [RPB2] | 3.16 ± 0.087 | 3.26 ± 0.081 | 3.05 ± 0.067 | 3.35 ± 0.086
TLDKPNAEATKEEFSSA [CSE2] | 2.99 ± 0.11 | 3.12 ± 0.1 | 3.23 ± 0.064 | 3.13 ± 0.069
DKKEMTIYNNIREGQNQ [SIR3] | 3.21 ± 0.056 | 3.37 ± 0.07 | 3.02 ± 0.041 | 3.27 ± 0.034
ELPLEDFKAKYCDSMGR [RPB5] | 3.31 ± 0.13 | 3.29 ± 0.14 | 3.74 ± 0.13 | 3.51 ± 0.12
RGFIKSEGSGSSLVQKG [RPC53] | 3.37 ± 0.1 | 3.34 ± 0.09 | 3.31 ± 0.076 | 3.14 ± 0.057
SGDSGVYTLACRSCPYE [RPC11] | 1.28 ± 0.13 | 2.01 ± 0.18 | – | 1.26 ± 0.15
PNSNKTHTEQNNPPKPQ [SNF2] | 2.78 ± 0.056 | 3.07 ± 0.083 | 3.06 ± 0.069 | 3.06 ± 0.052
EKIDGMDVDSVKTTLVS [RPC82] | 2.54 ± 0.11 | 2.78 ± 0.12 | 2.73 ± 0.11 | 2.1 ± 0.29
ADAQIQRETYDSNESDD [YLR335W/NUP2] | 2.07 ± 0.22 | 3.38 ± 0.21 | – | 2.66 ± 0.21
NGTLIGCVSYSPAALKQ [YMR153W/NUP53] | 1.85 ± 0.06 | 2.27 ± 0.086 | 1.83 ± 0.097 | 2.26 ± 0.045
SPYGNLQNDLIHKIQND [RPN5] | 2.02 ± 0.083 | 2.67 ± 0.053 | 2.82 ± 0.07 | 2.56 ± 0.058
FTCSCNSLTVDGNNANY [RPN14] | 2.8 ± 0.074 | 2.81 ± 0.076 | 2.69 ± 0.058 | 2.75 ± 0.044
KDHLLLEEEFVSNSEIL [RPT2] | 2.87 ± 0.09 | 2.83 ± 0.065 | 2.83 ± 0.066 | 2.74 ± 0.078
PNCPRPNMSICIFGDAF [RPL1A] | 1.75 ± 0.083 | 1.55 ± 0.06 | 1.55 ± 0.2 | 1.53 ± 0.04
LLTLTNAANVPVENIWA [RPP1A] | 2.12 ± 0.081 | 2.56 ± 0.13 | 2.48 ± 0.11 | 2.55 ± 0.094
